Literature values, collected in article PMC7883480.

Assays:
[1] = target: CXCR4 (Homo sapiens) (UniProt P61073); experiment: radioligand competitive displacement
[2] = target: GIP receptor (Homo sapiens) (UniProt P48546); experiment: competitive binding assay
[3] = target: GLP-1 receptor (Homo sapiens) (UniProt P43220); experiment: SPA binding assay

Kd [1] [nM] | Ki [2] [nM] | Ki [3] [nM] | Substance
1.44 |  |  | CXCL12 1-68 (from UniProt P48061)
464 |  |  | CXCL12 3-68 (from UniProt P48061)
 | 0.89 |  | GIP 1-30 (from UniProt P09681)
 | 2.3 |  | GIP 3-30 (from UniProt P09681)
 |  | 0.102 | GLP-1 7-36 (from UniProt P01275)
 |  | 156 | GLP-1 9-36 (from UniProt P01275)
